Values of other authors, collected in patent US20260263353A1, “PROGRAMMABLE DRUG-DEVICE MICRONEEDLE SYSTEM FOR THE DELIVERY AND MONITORING OF DIABETES AND OBESITY MEDICATIONS” (ALJ Creative Works, LLC, priority 2023, published 2026).

Conditions: once weekly dosing at clinically relevant doses; literature reference [26]

Insulin ICODEC
half-life: about 196 hours
safety and tolerability: safe and well-tolerated
